One series has as its target Ago2 wild type (Homo sapiens, UniProt Q9UKV8 1-859). In words: filter binding; guide-loaded Ago2; target Kd; Filter binding: 30 mM Tris pH 8.0, 0.1 M K acetate, 2 mM Mg acetate, 0.5 mM TCEP, 0.005% NP-40, 0.01 mg/ml yeast tRNA, room temp, 45 min, 0.1 nM target; smFRET: 50 mM Tris pH 8.0, 50 mM NaCl, 60 mM KCl (RISC assembly buffer), 23 C. The settings on record: protein: recombinant; tags: His6; guide g2-g9 pairs target nt 1-8; 3' overhangs; t1 = target nt 9.

A further series deals with Ago2 A481T (Homo sapiens, UniProt Q9UKV8 1-859, A481T). The description is as above. The settings on record: protein: recombinant; tags: His6; guide g2-g9 pairs target nt 1-8; 3' overhangs; t1 = target nt 9.

Here are results for six molecules from paper PMC4606517, “Water-mediated recognition of t1-adenosine anchors Argonaute2 to microRNA targets”.

Sequence of Ago2 wild type (Q9UKV8 whole entry): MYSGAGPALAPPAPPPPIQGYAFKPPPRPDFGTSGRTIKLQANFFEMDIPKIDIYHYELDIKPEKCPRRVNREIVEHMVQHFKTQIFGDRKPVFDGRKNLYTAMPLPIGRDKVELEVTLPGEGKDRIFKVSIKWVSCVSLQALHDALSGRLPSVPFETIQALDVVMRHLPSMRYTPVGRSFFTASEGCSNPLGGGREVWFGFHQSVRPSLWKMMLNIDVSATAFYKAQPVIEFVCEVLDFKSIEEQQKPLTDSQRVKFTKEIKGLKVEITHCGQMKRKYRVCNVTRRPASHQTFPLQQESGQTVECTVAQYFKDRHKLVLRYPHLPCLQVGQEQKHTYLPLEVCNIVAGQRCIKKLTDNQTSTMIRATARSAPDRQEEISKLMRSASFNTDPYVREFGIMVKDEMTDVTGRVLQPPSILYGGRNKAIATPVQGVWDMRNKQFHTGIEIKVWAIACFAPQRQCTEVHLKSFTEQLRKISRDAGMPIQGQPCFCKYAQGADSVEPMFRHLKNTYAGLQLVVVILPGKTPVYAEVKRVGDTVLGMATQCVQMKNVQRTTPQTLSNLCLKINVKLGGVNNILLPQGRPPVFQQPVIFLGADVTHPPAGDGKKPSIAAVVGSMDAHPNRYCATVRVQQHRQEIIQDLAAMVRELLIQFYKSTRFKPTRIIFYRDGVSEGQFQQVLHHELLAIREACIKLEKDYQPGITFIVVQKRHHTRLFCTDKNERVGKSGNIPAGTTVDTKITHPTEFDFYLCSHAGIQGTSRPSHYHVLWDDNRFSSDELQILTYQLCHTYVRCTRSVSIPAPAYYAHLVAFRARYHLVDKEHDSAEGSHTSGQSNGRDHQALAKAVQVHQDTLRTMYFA
Sequence of Ago2 A481T (Q9UKV8 whole entry A481T): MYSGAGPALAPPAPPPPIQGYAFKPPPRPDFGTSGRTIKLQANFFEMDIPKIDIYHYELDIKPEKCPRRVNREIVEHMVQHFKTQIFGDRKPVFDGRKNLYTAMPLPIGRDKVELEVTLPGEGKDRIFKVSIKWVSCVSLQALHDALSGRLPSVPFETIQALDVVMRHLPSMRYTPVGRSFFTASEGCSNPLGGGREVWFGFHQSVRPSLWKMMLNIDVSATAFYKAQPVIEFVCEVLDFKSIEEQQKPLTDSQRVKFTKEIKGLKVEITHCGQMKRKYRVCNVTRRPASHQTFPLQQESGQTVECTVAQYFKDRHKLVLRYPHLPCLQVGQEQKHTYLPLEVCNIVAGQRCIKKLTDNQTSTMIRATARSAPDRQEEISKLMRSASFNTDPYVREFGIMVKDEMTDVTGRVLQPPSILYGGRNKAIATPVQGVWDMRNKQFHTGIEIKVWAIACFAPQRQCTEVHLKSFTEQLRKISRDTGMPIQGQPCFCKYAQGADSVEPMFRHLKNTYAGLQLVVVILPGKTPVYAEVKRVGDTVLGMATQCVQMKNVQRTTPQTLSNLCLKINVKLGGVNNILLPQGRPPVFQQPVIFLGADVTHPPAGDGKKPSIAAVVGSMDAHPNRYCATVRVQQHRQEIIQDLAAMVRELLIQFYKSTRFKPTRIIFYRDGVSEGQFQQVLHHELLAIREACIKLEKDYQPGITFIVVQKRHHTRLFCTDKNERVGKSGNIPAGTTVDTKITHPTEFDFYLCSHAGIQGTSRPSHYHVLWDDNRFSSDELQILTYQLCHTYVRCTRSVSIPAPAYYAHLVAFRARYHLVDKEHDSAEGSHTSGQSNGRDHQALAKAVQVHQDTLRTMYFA

B1: guide + t1m6A target (dsRNA)
RNA 1: UUCACAUUGCCCAAGUCUCUU
RNA 2: CAAUGUGAAAA
modifications: 5'-phosphate on guide; target nt 9 = N6-methyladenosine (written A)
Take B1: the Kd in the series with Ago2 wild type was 1.8 ± 0.12 nM.

B2: guide + t1A target (dsRNA)
RNA 1: UUCACAUUGCCCAAGUCUCUU
RNA 2: CAAUGUGAAAA
modifications: 5'-phosphate on guide
For the molecule B2, the results for the Kd with Ago2 A481T and with Ago2 wild type were 1.5 ± 0.13 nM and 0.75 ± 0.04 nM, respectively.

B3: guide + t1U target (dsRNA)
RNA 1: UUCACAUUGCCCAAGUCUCUU
RNA 2: CAAUGUGAUAA
modifications: 5'-phosphate on guide
As to B3, the Kd with Ago2 wild type was found to be 1.9 ± 0.1 nM.

B4: guide + t1G target (dsRNA)
RNA 1: UUCACAUUGCCCAAGUCUCUU
RNA 2: CAAUGUGAGAA
modifications: 5'-phosphate on guide
As for B4, the Kd with Ago2 A481T amounted to 1.8 ± 0.11 nM; with Ago2 wild type, 1.9 ± 0.09 nM.

B5: guide + t1C target (dsRNA)
RNA 1: UUCACAUUGCCCAAGUCUCUU
RNA 2: CAAUGUGACAA
modifications: 5'-phosphate on guide
As for B5, the equilibrium dissociation constant (Kd) with Ago2 wild type was determined as 1.8 ± 0.12 nM.

B6: guide + t1DAP target (dsRNA)
RNA 1: UUCACAUUGCCCAAGUCUCUU
RNA 2: CAAUGUGAAAA
modifications: 5'-phosphate on guide; target nt 9 = 2,6-diaminopurine (written A)
As to B6, the Kd with Ago2 wild type worked out at 0.45 ± 0.03 nM.
